Here are results for 4 molecules from patent US20250084406A1 (University of California, published 2025).

For experiment [1], the target named is T1, 37B-VP16.
T1 construct: Expressed in S. cerevisiae; also called DHD37B fused to VP16; 37B DHD-AD
T1 chain: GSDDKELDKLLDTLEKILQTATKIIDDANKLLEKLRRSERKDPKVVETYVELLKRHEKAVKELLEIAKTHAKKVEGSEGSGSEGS
Kind of experiment: split TF YFP reporter assay in S. cerevisiae (all-by-all matrix, FIG. 1D). (In general: A reporter such as luciferase makes a cellular process visible.)

Experiment [2] addresses T2, 155B-VP16.
T2 construct: Expressed in S. cerevisiae; also called DHD155B fused to VP16
T2 chain: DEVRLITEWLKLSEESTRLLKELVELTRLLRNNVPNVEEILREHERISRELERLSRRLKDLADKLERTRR
The description is as above.

Experiment [3] concerns the target T3, DHD37B (fusion partner in the split TF assay not stated for this statement).
T3 construct: not shown: fused to VP16 or ZF43_8
T3 chain: T1 chain
Kind of experiment: split TF YFP reporter assay in S. cerevisiae (all-by-all matrix, FIG. 1D); orientation of the fusions not told.

The target in experiment [4] is T4, 154B-VP16.
T4 construct: Expressed in S. cerevisiae; also called DHD154B fused to VP16
T4 chain: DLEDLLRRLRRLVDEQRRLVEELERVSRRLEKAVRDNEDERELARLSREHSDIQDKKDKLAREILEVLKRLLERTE
Kind of experiment: competition in the split TF YFP reporter assay in yeast, layout of FIG. 2A (FIG. 2D).

B1: 37A-ZF43_8 (designed binder)
chain: DSDEHLKKLKTFLENLRRHLDRLDKHIKQLRDILSENPEDERVKDVIDLSERSVRIVKTVIKIFEDSVRKKEGSEGSGSEGS
notes: Expressed in S. cerevisiae; also called DHD37A fused to ZF43_8; 37A DHD-DBD
With B1, the binding result in experiment [1] is reported as “binds”.

B2: 155A-ZF43_8 (designed binder)
chain: PEDDVVRIIKEDLESNREVLREQKEIHRILELVTRGEVSEEAIDRVLKRQEDLLKKQKESTDKARKVVEERR
notes: Expressed in S. cerevisiae; also called DHD155A fused to ZF43_8
B2: the binding result in experiment [2] is listed as “binds”.

B3: DHD13B (fusion partner in the split TF assay not stated for this statement) (designed binder)
chain: GTEKRLLEEAERAHREQKEIIKKAQELHRRLEEIVRQSGSSEEAKKEAKKILEEIRELSKRSLELLREILYLSQEQKGSEGSGSEGS
notes: not shown: fused to VP16 or ZF43_8
For the molecule B3, the binding result in experiment [3] is “binds”.

B4: 154A dominant negative (designed binder)
chain: TAEELLEVHKKSDRVTKEHLRVSEEILKVVEVLTRGEVSSEVLKRVLRKLEELTDKLRRVTEEQRRVVEKLN
notes: also called DN
For B4, the binding result in experiment [4] is “binds”.
